Publication PMC10352136 (Nature Structural & Molecular Biology, 2023)
Substitutions are numbered along the chain they refer to. Names may count otherwise.

B1: CI-MPR_(2347–2375) peptide (bipartite sorting motif of the cation-independent mannose-6-phosphate receptor tail) (peptide, UniProt P11717 2347-2375, looked up)
peptide: SNVSYKYSKVNKEEETDENETEWLMEEIQ
notes: Called a peptide in the ITC methods; also called shorter CI-MPR tail segment
B2: SUMO-CI-MPR_(2330–2491) (entire cytosolic tail domain of CI-MPR) (domain or fragment, UniProt P11717 2330-2491, looked up)
chain: ERRETVISKLTTCCRRSSNVSYKYSKVNKEEETDENETEWLMEEIQLPPPRQGKEGQENGHITTKSVKALSSLHGDDQDSEDEVLTIPEVKVHSGRGAGAESSHPVRNAQSNALQEREDDRVGLVRGEKARKGKSSSAQQKTVSSTKLVSFHDDSDEDLLHI
notes: cation-independent mannose-6-phosphate receptor (CI-MPR), cytosolic tail, residues 2330-2491; also called CI-MPR tail domain; cytoplasmic domain of the CI-MPR; source: E. coli Rosetta (DE3), purified; not shown: His6-SUMO3, N-terminal, kept
B3: SNX5 (4 mut)^‡ (Y219A, M233A, V240A, R368A) (natural protein, human, UniProt Q9Y5X3 1-404, looked up)
chain: MAAVPELLQQQEEDRSKLRSVSVDLNVDPSLQIDIPDALSERDKVKFTVHTKTTLPTFQSPEFSVTRQHEDFVWLHDTLIETTDYAGLIIPPAPTKPDFDGPREKMQKLGEGEGSMTKEEFAKMKQELEAEYLAVFKKTVSSHEVFLQRLSSHPVLSKDRNFHVFLEYDQDLSVRRKNTKEMFGGFFKSVVKSADEVLFTGVKEVDDFFEQEKNFLINAYNRIKDSCVKADKATRSHKNAADDYIHTAACLHSLALEEPTVIKKYLLKVAELFEKLRKVEGRVSSDEDLKLTELLRYYMLNIEAAKDLLYRRTKALIDYENSNKALDKARLKSKDVKLAEAHQQECCQKFEQLSESAKEELINFKRKAVAAFRKNLIEMSELEIKHARNNVSLLQSCIDLFKNN
notes: sorting nexin 5 (SNX5), human, four point mutations; source: E. coli BL21 (DE3), purified (glutathione Sepharose, TEV cleavage, SEC); not shown: GST, N-terminal, cleaved
B4: CI-MPR_(2330–2491) cytosolic tail with an N-terminal cysteine, cross-linked to liposomes (domain or fragment, UniProt P11717 2330-2491, looked up)
chain: B2 chain
modifications: N-terminal cysteine cross-linked to maleimide-functionalized lipid (DSPE-Mal) on liposomes
notes: cation-independent mannose-6-phosphate receptor (CI-MPR), cytosolic tail, residues 2330-2491; also called CI-MPR tail; source: E. coli Rosetta (DE3), purified, conjugated to DSPE-Mal liposomes; not shown: Cys (added for chemical cross-linking), N-terminal, kept
B5: SNX5 (6 mut)^§ (Y219A, M233A, V240A, R368A, I398A, F401A) (natural protein, human, UniProt Q9Y5X3 1-404, looked up)
chain: B3 chain with I398A, F401A
notes: sorting nexin 5 (SNX5), human, six point mutations; source: E. coli BL21 (DE3), purified (glutathione Sepharose, TEV cleavage, SEC); not shown: GST, N-terminal, cleaved
B6: SNX5^FL (full-length sorting nexin 5) (natural protein, human, UniProt Q9Y5X3 1-404, looked up)
chain: B3 chain with A219Y, A233M, A240V, A368R
notes: sorting nexin 5 (SNX5), human, full length; Monomer by SEC-MALS; also called SNX5^WT; source: E. coli BL21 (DE3), purified (glutathione Sepharose, TEV cleavage, SEC); not shown: GST, N-terminal, cleaved

Key:
Settings in all cases: both partners purified
[1] = biological target: T1, ESCPE-1 (SNX1^FL–SNX5^FL heterodimer) (human, UniProt Q13596 1-522; Q9Y5X3 1-404); experiment: ITC; 25 °C, 300 mM NaCl, 0.5 mM TCEP, 25 mM HEPES pH 7.5; CI-MPR in the syringe (SNX1^PX in the syringe for its test with the peptide); one-site model
T1 construct: sorting nexin 1 (SNX1), human, full length; sorting nexin 5 (SNX5), human, full length; Single heterodimer by SEC-MALS; The GST tag is called cleavable; also called SNX1–SNX5; SNX1^WT-SNX5^WT; source: E. coli BL21 (DE3), pellets mixed and lysed together, purified (glutathione Sepharose, Ni-NTA, SENP2, ion exchange, SEC); not shown: His6-SUMO3, N-terminal, cleaved; copies: 1 + 1

[2] = biological target: T2, SNX1^BAR–SNX5^FL heterodimer (human, UniProt Q13596 301-522; Q9Y5X3 1-404); experiment: as above
T2 construct: BAR domain of SNX1, human; sorting nexin 5 (SNX5), human, full length; also called SNX1^BAR–SNX5 partial heterodimer; source: E. coli BL21 (DE3), purified as for SNX1^FL–SNX5^FL; not shown: His6-SUMO3, N-terminal, cleaved; copies: 1 + 1

[3] = biological target: T3, SNX5^PX (PX domain of SNX5) (human, UniProt Q9Y5X3 25-172); experiment: as above
T3 construct: PX domain of sorting nexin 5 (SNX5), human; also called SNX5^PX domain; isolated PX domain; source: E. coli BL21 (DE3), purified (Ni-NTA, TEV cleavage, ion exchange, SEC); not shown: His6-MBP, N-terminal, cleaved
T3 sequence (looked up): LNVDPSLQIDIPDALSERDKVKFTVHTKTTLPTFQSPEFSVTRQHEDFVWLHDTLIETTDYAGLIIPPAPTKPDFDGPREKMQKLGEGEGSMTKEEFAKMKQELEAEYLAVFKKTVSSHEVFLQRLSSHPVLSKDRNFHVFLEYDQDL

[4] = biological target: T3, SNX5^PX (PX domain of SNX5); experiment: ITC; 25 °C, 300 mM NaCl, 0.5 mM TCEP, 25 mM HEPES pH 7.5; 445 µM CI-MPR_(2347–2375) peptide titrated into a mix of 100 µM SNX1^BAR and 20 µM SNX5^PX; one-site model
[5] = biological target: B6; experiment: ITC; 25 °C, 300 mM NaCl, 0.5 mM TCEP, 25 mM HEPES pH 7.5; CI-MPR in the syringe (SNX1^PX in the syringe for its test with the peptide); one-site model
His-SUMO-SNX1 = biological target: T4, His-SUMO-SNX1 (human, UniProt Q13596 1-522); experiment: pull-down; 5 µM His-SUMO-SNX1 or mutant held on Ni-NTA beads, 10 µM SNX5 or mutant; 1 h at 4 °C in 150 mM NaCl, 10 mM imidazole, 0.5 mM TCEP, 10 mM HEPES pH 7.5; Coomassie-stained SDS-PAGE
T4 construct: sorting nexin 1 (SNX1), human, full length; Bait of the Ni-NTA pull-down; also called wild-type (WT) SNX1; source: E. coli BL21 (DE3), purified (tag-removal step omitted); not shown: His6-SUMO3, N-terminal, kept

His-SUMO-SNX1 (2× mut)^† = biological target: T5, His-SUMO-SNX1 (2× mut)^† (human, UniProt Q13596 1-522, F347A | W511A); experiment: as above
T5 construct: sorting nexin 1 (SNX1), human, full length, double mutant; Bait of the Ni-NTA pull-down; source: E. coli BL21 (DE3), purified (tag-removal step omitted); not shown: His6-SUMO3, N-terminal, kept

[6] = biological target: T1, ESCPE-1 (SNX1^FL–SNX5^FL heterodimer); experiment: liposome flotation; CI-MPR_(2330–2491) cross-linked by its N-terminal cysteine to DSPE-Mal (1–6%) on liposomes without phosphoinositides; SNXs incubated 1 h at 4 °C in buffer G; sucrose gradient, floated fraction on SDS-PAGE
[7] = biological target: B6; experiment: as above
[8] = biological target: T6, SNX1^FL (full-length sorting nexin 1) (human, UniProt Q13596 1-522); experiment: SEC-MALS; 100 μl of protein at 1 mg ml^−1 in 150 mM NaCl, 0.5 mM TCEP, 10 mM HEPES pH 7.5; Superdex 200 Increase 10/300 GL
T6 construct: sorting nexin 1 (SNX1), human, full length; Homodimer by SEC-MALS; also called SNX1 WT; source: E. coli BL21 (DE3), purified (Ni-NTA, SENP2 tag cleavage, ion exchange, SEC); not shown: His6-SUMO3, N-terminal, cleaved
T6 sequence (Q13596 whole entry): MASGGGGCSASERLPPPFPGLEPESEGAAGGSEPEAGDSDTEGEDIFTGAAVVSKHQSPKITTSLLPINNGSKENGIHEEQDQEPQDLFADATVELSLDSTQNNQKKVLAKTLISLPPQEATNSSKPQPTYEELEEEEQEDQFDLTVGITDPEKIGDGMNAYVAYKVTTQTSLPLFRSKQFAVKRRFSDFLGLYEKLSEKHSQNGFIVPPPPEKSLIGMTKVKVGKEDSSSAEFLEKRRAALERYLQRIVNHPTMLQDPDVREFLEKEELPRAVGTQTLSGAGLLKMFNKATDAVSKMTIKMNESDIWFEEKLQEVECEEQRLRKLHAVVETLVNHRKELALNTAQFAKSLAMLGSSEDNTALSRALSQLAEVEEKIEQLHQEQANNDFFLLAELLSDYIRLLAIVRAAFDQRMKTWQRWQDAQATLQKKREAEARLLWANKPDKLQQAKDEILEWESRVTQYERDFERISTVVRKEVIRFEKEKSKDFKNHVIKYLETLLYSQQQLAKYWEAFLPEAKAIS

T1 sequence (Q13596 whole entry, one chain of several): as the sequence (Q13596 whole entry) above
T4 sequence (Q13596 whole entry): as above
T5 sequence (Q13596 whole entry F347A/W511A): as the sequence (Q13596 whole entry) above, with F347A, W511A counted along it
T2 sequence (Q13596 301-522, chain 1 of 2): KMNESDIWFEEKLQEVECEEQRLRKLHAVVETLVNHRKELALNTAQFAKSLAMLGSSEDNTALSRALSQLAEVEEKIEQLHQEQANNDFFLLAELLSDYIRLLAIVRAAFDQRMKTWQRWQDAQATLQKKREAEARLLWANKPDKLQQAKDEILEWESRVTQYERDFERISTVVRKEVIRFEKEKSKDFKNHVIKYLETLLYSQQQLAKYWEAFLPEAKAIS
T2 sequence (Q9Y5X3 whole entry, chain 2 of 2, the tested form may be a part): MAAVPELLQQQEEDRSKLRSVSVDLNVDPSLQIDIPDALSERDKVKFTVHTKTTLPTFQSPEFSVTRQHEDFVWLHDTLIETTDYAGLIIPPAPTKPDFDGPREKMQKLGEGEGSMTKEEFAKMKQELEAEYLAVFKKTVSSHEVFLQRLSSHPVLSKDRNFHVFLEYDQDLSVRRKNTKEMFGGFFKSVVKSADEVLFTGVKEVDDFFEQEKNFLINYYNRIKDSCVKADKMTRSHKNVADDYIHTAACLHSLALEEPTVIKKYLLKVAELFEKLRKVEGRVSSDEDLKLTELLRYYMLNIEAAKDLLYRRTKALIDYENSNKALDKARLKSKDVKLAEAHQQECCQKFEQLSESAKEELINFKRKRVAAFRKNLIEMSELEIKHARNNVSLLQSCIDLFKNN

Binder: B1
- Kd [1]: 1500 nM
- Kd [2]: ~1900 nM
- Kd [3]: ~8 µM
- KD into a mixture of SNX5^PX and SNX1^BAR [4]: ~3.2 µM

Binder: B2
- Kd [1]: 2600 nM
- Kd [5]: ~8.8 µM

Binder: B3
- binding result (His-SUMO-SNX1): binds
- binding result (His-SUMO-SNX1 (2× mut)^†): binds

Binder: B4
- binding result [6]: binds
- binding result [7]: binds

Binder: B5
- binding result (His-SUMO-SNX1): binds

Binder: B6
- binding result [8]: binds
- binding result (His-SUMO-SNX1): binds
- binding result (His-SUMO-SNX1 (2× mut)^†): binds
